The record followed here is article PMC2171753 (The Journal of Cell Biology, 2005).

By stoichiometry N is commonly meant the number of molecules, sites or subunits per partner or assembly.

Numbering of substitutions follows the chain as printed. Names may count otherwise.

Sequences and labels used below:
B1: full-length EB1 F216A (natural protein, human, UniProt Q15691 1-268, looked up)
chain: MAVNVYSTSVTSDNLSRHDMLAWINESLQLNLTKIEQLCSGAAYCQFMDMLFPGSIALKKVKFQAKLEHEYIQNFKILQAGFKRMGVDKIIPVDKLVKGKFQDNFEFVQWFKKFFDANYDGKDYDPVAARQGQETAVAPSLVAPALNKPKKPLTSSSAAPQRPISTQRTAAAPKAGPGVVRKNPGVGNGDDEAAELMQQVNVLKLTVEDLEKERDAYFGKLRNIELICQENEGENDPVLQRIVDILYATDEGFVIPDEGGPQEEQEEY
B2: full-length EB1 Y217A (natural protein, human, UniProt Q15691 1-268, looked up)
chain: B1 chain with A216F, Y217A
B3: full-length EB1 K220A (natural protein, human, UniProt Q15691 1-268, looked up)
chain: B1 chain with A216F, K220A
B4: full-length EB1 E225A (natural protein, human, UniProt Q15691 1-268, looked up)
chain: B1 chain with A216F, E225A
B5: full-length EB1 F218A (natural protein, human, UniProt Q15691 1-268, looked up)
chain: B1 chain with A216F, F218A
B6: GST-EB1_(185-255) (domain or fragment, human, UniProt Q15691 185-255, looked up)
chain: GVGNGDDEAAELMQQVNVLKLTVEDLEKERDFYFGKLRNIELICQENEGENDPVLQRIVDILYATDEGFVI

The series “SEC” concerns the molecule itself. Nature of the series: SEC.
A further series deals with GFP-APC_(2744-2843) (human, UniProt P25054 2744-2843). The experiment in a line: pull-down.
Chain of GFP-APC_(2744-2843) (P25054 2744-2843): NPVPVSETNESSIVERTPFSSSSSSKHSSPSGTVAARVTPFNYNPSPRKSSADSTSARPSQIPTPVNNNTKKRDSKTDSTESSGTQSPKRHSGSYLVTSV
The target in series [1] is APC-GFP fusion construct, APC residues 2739–2831 (human, UniProt P25054 2739-2831). Nature of the series: pull-down.
For series [2], the target named is APC-GFP fusion construct, APC residues 2760–2831 (human, UniProt P25054 2760-2831). Nature of the series: pull-down.
For the series “GST-EB1_(185-255)”, the target named is B6. Nature of the series: pull-down.

For B1, the “stoichiometry N” value in the series “SEC” came to 2. Still for that read-out and setting: for B2 the value was 2; for B3, 2. On the same count and under the same terms, the figure for B4 is 2. On the same count and under the same terms, the figure for B5 is 2. Regarding B6, the binding result (with GFP-APC_(2744-2843); in series [1]; in series [2]) was “binds” throughout. Turning to TPFNYNPSPRKSSADSTSARPSQIPTPVNNNTKKRDSKTDSTESSGTQSP (domain or fragment, human, UniProt P25054 2782-2831, looked up) [APC-GFP fusion construct, APC residues 2782–2831], the binding result with GST-EB1_(185-255) was “binds”.
